Results from paper PMC4346919.

Tests used:
Test in all cases: far-Western, overlay or dot blot; purified GST-fused peptides resolved by SDS-PAGE, transferred to PVDF membranes and probed with biotin-labeled ALG-2; chemiluminescence, quantified with ImageJ
GST-8 aa-fusion of SET1B = target: GST-8 aa-fusion of SET1B
GST-8 aa-fusion of RBM22 = target: GST-8 aa-fusion of RBM22
GST-8 aa-fusion of CHERP = target: GST-8 aa-fusion of CHERP
[1] = target: substitution of Pro with Ala at position 2, 4 or 5 (P2A, P4A or P5A) or substitution of Pro5 with Leu (P5L)

Sequence of biotin-labeled ALG-2 (O75340 whole entry, the tested form may be a part): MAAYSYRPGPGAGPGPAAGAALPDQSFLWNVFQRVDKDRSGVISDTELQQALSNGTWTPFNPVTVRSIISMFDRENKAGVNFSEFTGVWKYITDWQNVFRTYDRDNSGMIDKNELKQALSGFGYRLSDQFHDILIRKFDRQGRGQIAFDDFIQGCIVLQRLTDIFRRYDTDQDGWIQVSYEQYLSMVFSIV

## biotin-labeled ALG-2 (from UniProt O75340 1-191) (natural protein)
GST-8 aa-fusion of SET1B
  FW signal relative to that for Sec31A (of the signal for Sec31A): < 0.0625
GST-8 aa-fusion of RBM22
  FW signal relative to that for Sec31A (of the signal for Sec31A): < 0.0625
GST-8 aa-fusion of CHERP
  FW signal relative to that for Sec31A (of the signal for Sec31A): < 0.0625
[1]
  relative binding activity (percent of WT): 40 to 75 % of WT
